System: PARP (endogenous, MDA-MB-231 cells) (Homo sapiens)
Test: cell_activity
Conditions: cholesterol-conjugated, HEG loop, 5 uM, 48 h

Row | Sequence | activity (% PARylated cells) (FANA (2'-deoxy-2'-fluoroarabino) nucleotides and PS linkages (positions only in images), PARP activation) | activity (% PARylated cells) (3 PS linkages on each strand, PARP activation weaker than OX413)
1 | CCCAGCAAACAAGCCT (double strand) [OX413] | > 40 | –
2 | CCCAGCAAACAAGCCT (double strand) [OX401] | – | 20
